Molecular target: WI/05 HA1 monomer (Influenza A virus …, UniProt Q0PED2, strain)
Assay: ELISA
Settings: both partners purified

B1: mAb #1664 (antibody, V domains shown)
VH: EVQVMQSGAEARMTGATVKISCKASGYTFSDYFLHWVKQAPGKGLEWMGLVDVDNGEVRYAEKFQGRVTITADTSTETAYLEMTTVTSGDTAVYYCASTTPRGGNPSVYNYFFVDVWGKGTTVTVSS
VL: QPVLTQSSSASASLGSSVKLTCTLSSGHDNYIIAWHQQQPGKAPRYLMQVGAGGTYNKGSGVPHRFSGSSSGADRYLTISNLQSDDEADYYCETWDSKTVFGGGTTLTVL
notes: also called private mAb; H3-specific mAb; source: HEK 293F cells, transfected (GenScript), conditioned media; purified
B1: no binding (tested: 20 μg/mL).

From paper PMC7899375 (PLoS ONE, 2021)
